{"source": "paper PMC12153800", "about": "(2025)", "binders": {"B1": {"name": "eGFP-Wnt5a (ligand)", "chain": "IIGAQPLCSQLAGLSQGQKKLCHLYQDHMQYIGEGAKTGIKECQYQFRHRRWNCSTVDNTSVFGRVMQIGSRETAFTYAVSAAGVVNAMSRACREGELSTCGCSRAARPKDLPRDWLWGGCGDNIDYGYRFAKEFVDARERERIHAKGSYESARILMNLHNNEAGRRTVYNLADVACKCHGVSGSCSLKTCWLQLADFRKVGDALKEKYDSAAAMRLNSRGKLVQVNSRFNSPTTQDLVYIDPSPDYCVRNESTGSLGTQGRLCNKTSEGMDGCELMCCGRGYDQFKTVQTERCHCKFHWCCYVKCKKCTEIVDQFVCK"}, "B2": {"name": "eGFP-Wnt16 (ligand)", "chain": "NWMWLGIASFGVPEKLGCANLPLNSRQKELCKRKPYLLPSIREGARLGIQECGSQFRHERWNCMITAAATTAPMGASPLFGYELSSGTKETAFIYAVMAAGLVHSVTRSCSAGNMTECSCDTTLQNGGSASEGWHWGGCSDDVQYGMWFSRKFLDFPIGNTTGKENKVLLAMNLHNNEAGRQAVAKLMSVDCRCHGVSGSCAVKTCWKTMSSFEKIGHLLKDKYENSIQISDKTKRKMRRREKDQRKIPIHKDDLLYVNKSPNYCVEDKKLGIPGTQGRECNRTSEGADGCNLLCCGRGYNTHVVRHVERCECKFIWCCYVRCRRCESMTDVHTCK"}}, "key": {"[1]": {"molecular_target": "HiBiT-FZD7-mCherry (mouse, UniProt Q61090 33-572)"}, "[2]": {"molecular_target": "T1, HiBiT-FZD4-mCherry (mouse, UniProt Q61088 37-537)", "T1 chain": "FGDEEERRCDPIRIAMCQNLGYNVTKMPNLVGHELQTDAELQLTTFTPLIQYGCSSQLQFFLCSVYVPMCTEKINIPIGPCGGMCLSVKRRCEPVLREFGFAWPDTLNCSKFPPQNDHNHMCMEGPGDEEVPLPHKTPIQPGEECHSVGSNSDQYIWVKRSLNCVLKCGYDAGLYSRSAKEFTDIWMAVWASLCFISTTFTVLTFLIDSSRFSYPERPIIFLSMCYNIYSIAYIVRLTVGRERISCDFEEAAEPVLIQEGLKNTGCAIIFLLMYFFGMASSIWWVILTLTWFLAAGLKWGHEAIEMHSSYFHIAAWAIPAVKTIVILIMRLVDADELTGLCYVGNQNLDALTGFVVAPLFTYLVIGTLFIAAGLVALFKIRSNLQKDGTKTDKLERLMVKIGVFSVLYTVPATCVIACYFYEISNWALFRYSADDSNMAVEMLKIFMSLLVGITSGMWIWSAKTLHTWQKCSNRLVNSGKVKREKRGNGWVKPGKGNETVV"}, "[3]": {"molecular_target": "T2, HiBiT-FZD5-mCherry (U-2 OS cells) (mouse, UniProt Q9EQD0 27-585)", "T2 chain": "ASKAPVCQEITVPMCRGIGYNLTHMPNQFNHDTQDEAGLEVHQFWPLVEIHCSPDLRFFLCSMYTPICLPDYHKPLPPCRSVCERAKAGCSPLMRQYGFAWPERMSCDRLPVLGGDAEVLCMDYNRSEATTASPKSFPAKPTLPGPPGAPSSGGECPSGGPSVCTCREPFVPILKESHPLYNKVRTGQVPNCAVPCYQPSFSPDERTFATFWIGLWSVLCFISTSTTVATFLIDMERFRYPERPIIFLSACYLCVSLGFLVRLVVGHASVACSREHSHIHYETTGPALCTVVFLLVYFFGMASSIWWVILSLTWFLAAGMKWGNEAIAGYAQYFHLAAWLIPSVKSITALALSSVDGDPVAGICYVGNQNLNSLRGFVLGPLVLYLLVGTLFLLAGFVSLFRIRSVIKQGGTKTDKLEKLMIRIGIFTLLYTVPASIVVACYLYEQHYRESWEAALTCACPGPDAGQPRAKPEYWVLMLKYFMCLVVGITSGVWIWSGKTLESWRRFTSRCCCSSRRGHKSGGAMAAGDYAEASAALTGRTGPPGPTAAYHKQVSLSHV"}, "[4]": {"molecular_target": "HiBiT-FZD1-mCherry (mouse, UniProt O70421 69-642)", "sequence (O70421 69-642)": "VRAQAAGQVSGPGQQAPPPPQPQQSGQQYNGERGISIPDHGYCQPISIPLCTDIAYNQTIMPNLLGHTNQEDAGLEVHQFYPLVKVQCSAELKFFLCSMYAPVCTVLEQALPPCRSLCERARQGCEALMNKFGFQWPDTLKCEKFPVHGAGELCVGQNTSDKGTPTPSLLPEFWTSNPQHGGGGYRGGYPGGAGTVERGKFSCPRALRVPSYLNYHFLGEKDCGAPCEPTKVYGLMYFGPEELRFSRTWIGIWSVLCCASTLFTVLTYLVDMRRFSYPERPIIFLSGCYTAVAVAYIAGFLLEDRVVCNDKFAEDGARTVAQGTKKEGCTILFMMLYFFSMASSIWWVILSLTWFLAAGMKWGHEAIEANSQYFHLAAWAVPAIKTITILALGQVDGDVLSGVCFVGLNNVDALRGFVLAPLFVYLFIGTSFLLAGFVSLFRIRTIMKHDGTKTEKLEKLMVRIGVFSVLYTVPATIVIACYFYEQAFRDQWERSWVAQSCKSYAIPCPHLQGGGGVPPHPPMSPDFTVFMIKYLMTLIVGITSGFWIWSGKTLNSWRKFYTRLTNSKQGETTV"}, "[5]": {"molecular_target": "HiBiT-FZD2-mCherry (mouse, UniProt Q9JIP6 29-570)", "sequence (Q9JIP6 29-570)": "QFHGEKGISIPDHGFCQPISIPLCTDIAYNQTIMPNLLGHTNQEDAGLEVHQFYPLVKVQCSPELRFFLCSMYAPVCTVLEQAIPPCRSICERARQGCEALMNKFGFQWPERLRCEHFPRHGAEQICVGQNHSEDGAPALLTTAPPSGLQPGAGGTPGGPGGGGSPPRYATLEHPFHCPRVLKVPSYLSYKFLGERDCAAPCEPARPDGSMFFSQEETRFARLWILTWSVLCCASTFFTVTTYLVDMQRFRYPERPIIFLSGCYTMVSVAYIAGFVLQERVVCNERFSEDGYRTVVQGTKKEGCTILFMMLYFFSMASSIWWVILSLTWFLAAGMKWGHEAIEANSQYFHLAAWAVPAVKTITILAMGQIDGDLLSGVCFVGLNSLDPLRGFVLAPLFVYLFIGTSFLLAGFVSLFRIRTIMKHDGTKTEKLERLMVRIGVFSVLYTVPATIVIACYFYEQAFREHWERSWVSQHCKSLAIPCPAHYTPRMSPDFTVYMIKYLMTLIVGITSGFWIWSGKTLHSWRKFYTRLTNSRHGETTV"}, "[6]": {"molecular_target": "T3, HiBiT-FZD8-mCherry (mouse, UniProt Q61091 28-685)", "T3 chain": "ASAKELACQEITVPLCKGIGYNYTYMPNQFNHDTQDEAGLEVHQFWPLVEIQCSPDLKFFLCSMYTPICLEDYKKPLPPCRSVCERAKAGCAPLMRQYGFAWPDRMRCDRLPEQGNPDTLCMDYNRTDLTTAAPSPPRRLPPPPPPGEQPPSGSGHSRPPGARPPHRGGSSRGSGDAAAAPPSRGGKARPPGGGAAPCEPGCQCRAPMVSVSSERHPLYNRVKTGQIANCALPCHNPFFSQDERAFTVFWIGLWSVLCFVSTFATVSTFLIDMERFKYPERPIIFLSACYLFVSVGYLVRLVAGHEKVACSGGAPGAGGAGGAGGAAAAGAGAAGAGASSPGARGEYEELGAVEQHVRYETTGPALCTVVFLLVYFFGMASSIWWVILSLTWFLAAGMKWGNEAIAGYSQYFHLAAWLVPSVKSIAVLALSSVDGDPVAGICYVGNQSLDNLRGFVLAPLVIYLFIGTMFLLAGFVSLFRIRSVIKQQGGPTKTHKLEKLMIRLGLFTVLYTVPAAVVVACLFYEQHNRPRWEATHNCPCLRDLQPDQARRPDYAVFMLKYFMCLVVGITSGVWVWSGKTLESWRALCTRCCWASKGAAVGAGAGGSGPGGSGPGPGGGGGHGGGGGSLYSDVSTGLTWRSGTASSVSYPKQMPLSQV"}}}
{"binder": "B1", "values": [{"measurement": "Kd", "setting": "[1]", "result": 1.25, "unit": "nM"}, {"measurement": "Kd", "setting": "[2]", "result": 3.56, "unit": "nM"}, {"measurement": "Kd", "setting": "[3]", "result": 16.2, "unit": "nM"}, {"measurement": "Kd", "setting": "[4]", "result": 14.4, "unit": "nM"}, {"measurement": "Kd", "setting": "[5]", "result": 3.85, "unit": "nM"}, {"measurement": "Kd", "setting": "[6]", "result": 7.52, "unit": "nM"}]}
{"binder": "B2", "values": [{"measurement": "Kd", "setting": "[1]", "result": 10.3, "unit": "nM"}, {"measurement": "Kd", "setting": "[2]", "result": 21.8, "unit": "nM"}, {"measurement": "Kd", "setting": "[3]", "result": 14.2, "unit": "nM"}, {"measurement": "Kd", "setting": "[4]", "result": 30.7, "unit": "nM"}, {"measurement": "Kd", "setting": "[5]", "result": 10.6, "unit": "nM"}, {"measurement": "Kd", "setting": "[6]", "result": 6.62, "unit": "nM"}]}
